By stoichiometry N is commonly meant a count of units in the complex or per binding partner.

Assay [1] addresses T1, Snf7 labeled with Alexa488 (yeast), P39929.
T1 chain: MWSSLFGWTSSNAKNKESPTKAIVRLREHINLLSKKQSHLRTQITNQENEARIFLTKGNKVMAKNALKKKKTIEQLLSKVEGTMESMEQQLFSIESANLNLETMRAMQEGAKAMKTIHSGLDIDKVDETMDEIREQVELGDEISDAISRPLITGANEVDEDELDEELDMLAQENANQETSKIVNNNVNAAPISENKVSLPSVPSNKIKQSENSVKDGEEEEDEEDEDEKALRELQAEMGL
Put plainly: TIRF microscopy with counting of molecules by fluorescence intensity. The conditions noted are these: remark: other sources report otherwise.

In a further assay the target is T2, Snf7 (yeast), P39929.
T2 chain: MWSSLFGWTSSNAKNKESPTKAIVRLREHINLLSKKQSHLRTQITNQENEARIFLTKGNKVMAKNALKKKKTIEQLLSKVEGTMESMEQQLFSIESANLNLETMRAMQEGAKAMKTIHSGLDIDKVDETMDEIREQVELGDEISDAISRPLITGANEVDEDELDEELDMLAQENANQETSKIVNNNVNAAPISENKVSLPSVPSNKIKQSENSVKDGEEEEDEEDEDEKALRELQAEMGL
As to the kind of experiment: high-speed atomic force microscopy. Conditions: remark: other sources report otherwise.

B1: Snf7 labeled with Alexa488, P39929 1-240 (natural protein)
chain: MWSSLFGWTSSNAKNKESPTKAIVRLREHINLLSKKQSHLRTQITNQENEARIFLTKGNKVMAKNALKKKKTIEQLLSKVEGTMESMEQQLFSIESANLNLETMRAMQEGAKAMKTIHSGLDIDKVDETMDEIREQVELGDEISDAISRPLITGANEVDEDELDEELDMLAQENANQETSKIVNNNVNAAPISENKVSLPSVPSNKIKQSENSVKDGEEEEDEEDEDEKALRELQAEMGL
modifications: here or on the partner: Alexa488 label (TFP-Alexa-488), site not stated; Alexa488 label (TFP-Alexa-488), site not stated
As for B1, the stoichiometry N in assay [1] is 50 monomers.

B2: Snf7, P39929 1-240 (natural protein)
chain: MWSSLFGWTSSNAKNKESPTKAIVRLREHINLLSKKQSHLRTQITNQENEARIFLTKGNKVMAKNALKKKKTIEQLLSKVEGTMESMEQQLFSIESANLNLETMRAMQEGAKAMKTIHSGLDIDKVDETMDEIREQVELGDEISDAISRPLITGANEVDEDELDEELDMLAQENANQETSKIVNNNVNAAPISENKVSLPSVPSNKIKQSENSVKDGEEEEDEEDEDEKALRELQAEMGL
Consider B2, for which the filament growth rate (subunits.s^−1.μM^−1) with Snf7 (yeast), P39929 turned out to be 3.

Source of the values: PMC4644223.
